This data set concerns the molecule itself. The experiment in a line: SEC. On the technique in general: Size exclusion chromatography separates by hydrodynamic size, large species first.

B1: Mycobacterium tuberculosis CysA2 (enzyme)
chain: MARCDVLVSADWAESNLHAPKVVFVEVDEDTSAYDRDHIAGAIKLDWRTDLQDPVKRDFVDAQQFSKLLSERGIANEDTVILYGGNNNWFAAYAYWYFKLYGHEKVKLLDGGRKKWELDGRPLSSDPVSRPVTSYTASPPDNTIRAFRDEVLAAINVKNLIDVRSPDEFSGKILAPAHLPQEQSQRPGHIPGAINVPWSRAANEDGTFKSDEELAKLYADAGLDNSKETIAYCRIGERSSHTWFVLRELLGHQNVKNYDGSWTEYGSLVGAPIELGS
As usually defined, the stoichiometry N is the number of molecules, sites or subunits per partner or assembly. For the protein B1, the “stoichiometry N” value turned out to be 2.

These data come from PMC6856128 (Scientific Reports, 2019).
